Test results published in patent US20060134719A1, “Novel serine protease” (priority 2002, published 2006).
*: point of attachment. AMC = Cc1cc(=O)oc2cc(N*)ccc12; Boc = CC(C)(C)OC(=O)*; OBn = c1ccc(CO*)cc1

Legend:
Type in all cases: biochemical
[1] = molecular target: T1, purified signal-FLAG-ARS-extracellular enzyme after the treatment with trypsin beads (Homo sapiens, UniProt Q7Z410, INS90FVSSFQKTELEASCVGCSVLNYRDGNSSVLVHFQ); assay: Detection of enzyme activity using physiologically active peptides (HPLC); conditions: peptide 0.1 mM in 100 mM ammonium hydrogen carbonate pH 8, 37° C. for 16 hours; versus buffer control
T1 construct: FLAG (N); made in house; host or cells: HEK293-EBNA
T1 sequence (Q7Z410 with tags, fused parts or gaps): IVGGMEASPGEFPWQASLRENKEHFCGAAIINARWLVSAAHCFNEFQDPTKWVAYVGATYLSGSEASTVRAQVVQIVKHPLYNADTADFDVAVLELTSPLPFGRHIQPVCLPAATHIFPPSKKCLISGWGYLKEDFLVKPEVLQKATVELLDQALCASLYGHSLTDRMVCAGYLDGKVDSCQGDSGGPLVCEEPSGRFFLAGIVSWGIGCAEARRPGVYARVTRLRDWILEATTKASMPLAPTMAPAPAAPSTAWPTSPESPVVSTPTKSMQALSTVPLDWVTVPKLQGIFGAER
T1 sequence (Q7Z410 with tags, fused parts or gaps INS90FVSSFQKTELEASCVGCSVLNYRDGNSSVLVHFQ): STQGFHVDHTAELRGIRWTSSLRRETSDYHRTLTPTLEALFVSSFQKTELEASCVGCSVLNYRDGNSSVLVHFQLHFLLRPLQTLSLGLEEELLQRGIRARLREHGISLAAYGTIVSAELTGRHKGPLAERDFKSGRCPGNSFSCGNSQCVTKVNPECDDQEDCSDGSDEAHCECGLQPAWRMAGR
Procedure: The purified signal-FLAG-ARS-extracellular enzyme after the treatment with trypsin beads in the same manner as in the method of Example 9 was used as an enzyme sample and was mixed with the following physiologically active peptides for reaction at 37° C. for 16 hours, to detect the enzyme activity. As a control without addition of enzyme, an ammonium hydrogen carbonate buffer was used. The peptides were adjusted to 0.1 mM in 100 mM ammonium hydrogen carbonate solution of pH 8. The peptides used were adenocorticotropic hormone (ACTH), angiotensin 1-13, angiotensin 1-14, angiotensin 1-7, angiotensin 1-9, angiotensin 3-7, angiotensin 3-8, angiotensin I, angiotensin II, angiotensin III, A-type natriuretic peptide (ANP), apelin 13, apelin 36, big gastrin, B-type natriuretic peptide 32 (BNP 32), bradykinin, benzoyl-Gly-His-Leu, chymostatin, C-type natriuretic peptide 22 (CNP 22), arginine-deficient bradykinin (Des-Arg-bradykinin), leucine-terminal enkephalin (Leu-enkephalin), methionine-terminal enkephalin (Met-enkephalin), growth hormone (GH), gastric inhibitory peptide (GIP), glucagon-like peptide 1 (GLP-1), glucagon-like peptide 2 (GLP-2), glucagon, growth hormone releasing factor (GRF), insulin, luteinizing hormone releasing hormone (LH-RH), melanin-concentrating hormone (MCH), α-melanocyte stimulating hormone (α-MSH), motilin, neurotensin, neuropeptide Y (NPY), oxytosin, pituitary adenylate cyclase activating polypeptide 38 (PACAP38), prolactin-releasing peptide (PrRP31), pyroglutamic apelin 13 (Pyr-apelin 13), secretin, somatostatin, substance P, [D-Argl, D-Pro2,D-Trp7,9, Leul1]-substance P, [D-Pro2,D-Trp7,9]-substance P, urotensin II, or vasoactive intestinal peptide (VIP) (all from Peptide Institute, Inc.). The cleavage of the substrate peptides was confirmed by analyzing and comparing the reaction of a sample with the enzyme solution to with that of a sample with added ammonium hydrogen carbonate buffer instead of the enzyme, by high-performance liquid chromatography (HPLC) (LC-10AS manufactured by Shimadzu Co., Ltd.).
TSK-gel ODS-80 Ts column, manufactured by TOSOH
Column temperature: 40° C.
Measurement wavelength: 220 nm
Compositions of solvent solutions
Solution A: 10 mM potassium dihydrogen phosphate buffer, pH 7.4 to 8.0
Solution B: mixture solution of 90% acetonitrile: 10% ultra-pure water

[2] = molecular target: T2, purified protein solution (signal-FLAG-ARS-extracellular protein) (Homo sapiens, UniProt Q7Z410, INS90FVSSFQKTELEASCVGCSVLNYRDGNSSVLVHFQ); assay: Enzyme activity of purified recombinant protein using synthetic peptides; conditions: substrate 200 μM or 400 μM, ammonium hydrogen carbonate buffer, 37° C. for one hour; versus buffer control
T2 construct: made in house; host or cells: HEK293-EBNA
T2 sequence (Q7Z410 with tags, fused parts or gaps INS90FVSSFQKTELEASCVGCSVLNYRDGNSSVLVHFQ): T1 sequence (Q7Z410 with tags, fused parts or gaps INS90FVSSFQKTELEASCVGCSVLNYRDGNSSVLVHFQ)
T2 sequence (Q7Z410 with tags, fused parts or gaps): T1 sequence (Q7Z410 with tags, fused parts or gaps)
Procedure: Using a cell expressing the signal-FLAG-ARS-extracellular protein, a recombinant protein secreted into the liquid culture of the cell was extracted and purified. Specifically, the transfected HEK293EBNA cells were incubated by the same method as in Example 7 to about 80% confluence, from which the culture medium was then removed. Instead, a culture medium containing 4% serum was added, for further incubation under conditions of 37° C. and a carbon dioxide concentration of 5% for another 4 days. The culture supernatant was recovered 4 days later; filtered through a 0.22-μm filter (Zartor); and adsorbed on an ANTI-FLAG M2-AGAROSE AFFINITY GEL (Sigma) column equilibrated with TBS buffer by a routine method. Subsequently, about 50 ml of the TBS buffer was used for washing the column. Then, 6 ml of […] glycine hydrochloride solution of pH 2.2 was passed through the column to obtain each 1 ml fraction. To the separated fractions, 100 μl of 1 M Tris-HCl of pH 8 was immediately added to adjust the pH. The individual fractions thus obtained were confirmed by Western blotting using an antibody against the FLAG tag added to the N terminus (mouse anti-FLAG monoclonal antibody M2; Sigma). Specifically, the eluted fractions were electrophoresed on SDS/4% to 20% acrylamide gel (Daiichi Pure Chemicals Co., Ltd.) (under reducing conditions) and then transferred on PVDF membrane (Millipore) using a blotting apparatus. After adding Block Ace (DAINIPPON PHARMACEUTICAL CO., LTD.) for blocking to the transferred PVDF membrane, a biotinylated mouse anti-FLAG monoclonal antibody (M2; Sigma) and horseradish peroxidase-labeled streptoavidin (Amersham Pharmacia) were sequentially reacted. After reaction, it was confirmed that which eluted fractions contained the protein, using ECL Western blotting detection system (Amersham Pharmacia).
Using a synthetic peptides which have the C terminus labeled wit MCA (4-methyl-coumaryl-7-amide) by the same method as in Example 8, the cleavage activity of the enzyme purified in Example 10 was detected. Unless otherwise described, the method described in a paper (Yasuoka, S. et al., Am. J. Respir. Cell Mol Biol., Vol. 16, 300-308, 1997) was used. Specifically, using a synthetic peptides (Peptide Institute, Inc.) which have the C terminus labeled with MCA as substrates, the substrates were diluted with ammonium hydrogen carbonate buffer to become a final concentration of 200 μM or 400 μM in a 96-well plate. After the purified protein solution obtained in Example 10 or the ammonium hydrogen carbonate buffer as a control was added to the substrate solutions, the resulting mixtures were incubated at 37° C. for one hour. Subsequently, the fluorescence of AMC (7-amino-4-methyl-coumarin) released from the synthetic peptide by enzymatic cleavage was measured at a wavelength of 460 nm for measurement, using an excitation wavelength of 390 nm with a fluorescent plate reader (SAFIRE manufactured by TECAN). In FIG. 1, the open bar expresses buffer control, while the solid bar expresses the case of using purified protein solution. The first bar represents the case of using Boc-Glu(OBzl)-Ala-Arg-MCA as a substrate; the second bar represents the case of using Boc-Phe-Ser-Arg-MCA as a substrate; the third bar represents the case of using Boc-Leu-Ser-Thr-Arg-MCA as a substrate; the fourth bar represents the case of using Boc-Gln-Arg-Arg-MCA as a substrate; the fifth bar represents the case of using Suc-Ala-Ala-Pro-Phe-MCA as a substrate; the sixth bar represents the case of using Suc-Ala-Pro-Ala-MCA as a substrate; the seventh bar represents the case of using Boc-Glu-Lys-Lys-MCA as a substrate; the eighth bar represents the case of using Boc-Leu-Lys-Arg-MCA as a substrate; the ninth bar represents the case of using Boc-Leu-Gly-Arg-MCA as a substrate; and the tenth bar represents the case of using Boc-Asp(OBzl)-Pro-Arg-MCA as a substrate.

[3] = molecular target: T3, enzyme solution treated with trypsin beads (purified signal-FLAG-ARS-extracellular protein) (Homo sapiens, UniProt Q7Z410, INS90FVSSFQKTELEASCVGCSVLNYRDGNSSVLVHFQ); assay: Substrate cleavage activity of purified protein solution treated with trypsin beads; conditions: substrate 400 μM, ammonium hydrogen carbonate buffer, 37° C. for one hour
T3 construct: FLAG (N); made in house; host or cells: HEK293-EBNA
T3 sequence (Q7Z410 with tags, fused parts or gaps): T1 sequence (Q7Z410 with tags, fused parts or gaps)
T3 sequence (Q7Z410 with tags, fused parts or gaps INS90FVSSFQKTELEASCVGCSVLNYRDGNSSVLVHFQ): T1 sequence (Q7Z410 with tags, fused parts or gaps INS90FVSSFQKTELEASCVGCSVLNYRDGNSSVLVHFQ)
Procedure: By the same method as in Example 9, an enzyme solution treated with trypsin beads was obtained, using the purified protein solution. Then, the substrate cleavage activity of the enzyme solution was measured by the same method as in Example 8. Specifically, synthetic peptide substrates were diluted in ammonium hydrogen carbonate buffer to become a final concentration of 400 μM in a 96-well plate. After the enzyme solution described above was mixed into the resulting diluted substrates, the mixture were incubated at 37° C. for one hour. Subsequently, the fluorescence of AMC released from the synthetic peptide by enzymatic cleavage were measured.

Substance | cleavage of physiologically active peptide by enzyme sample (HPLC) [1] | cleavage of synthetic peptide by purified protein solution (fluorescence of released AMC) [2] | cleavage of synthetic peptide by enzyme solution treated with trypsin beads (fluorescence of released AMC) [3]
melanin-concentrating hormone [MCH] | selectively cleaved |  | 
C-type natriuretic peptide 22 [CNP] | selectively cleaved |  | 
vasoactive intestinal peptide [VIP] | selectively cleaved |  | 
Boc-Leu-Ser-Thr-Arg-MCA (Boc-LSTR-{AMC}; SMILES Cc1cc(=O)oc2cc(NC(=O)[C@H](CCCNC(=N)N)NC(=O)[C@@H](NC(=O)[C@H](CO)NC(=O)[C@H](CC(C)C)NC(=O)OC(C)(C)C)[C@@H](C)O)ccc12) [synthetic peptide substrate labeled with MCA at the C terminus] |  | cleaved | cleaved
Boc-Asp(OBn)-Pro-Arg-{AMC} |  | cleaved | cleaved
Boc-Leu-Gly-Arg-{AMC} |  | cleaved | cleaved
α-melanocyte stimulating hormone [α-MSH] | selectively cleaved |  | 
neuropeptide Y [NPY] | selectively cleaved |  | 
Boc-Glu-Lys-Lys-{AMC} |  | cleaved | cleaved
Boc-Leu-Lys-Arg-{AMC} |  | cleaved | cleaved
A-type natriuretic peptide [ANP] | selectively cleaved |  | 
